For the experiment, the target named is SPE-7 IgE (DNP-specific murine IgE/λ, highly cytokinergic) (murine).

In the case of recombinant SPE-7 IgE Fab, the IC50 of recombinant SPE-7 IgE Fab (30–600 nM) for inhibition of LAD-2 cell TNF-α release evoked by 30 nM SPE-7 IgE; pair blocked: 'free' SPE-7 IgE with receptor-bound SPE-7 IgE stood at 170 nM and the IC50 of recombinant SPE-7 IgE Fab (30–600 nM) for inhibition of LAD-2 mast cell degranulation induced by 30 nM SPE-7 IgE; pair blocked: 'free' SPE-7 IgE with receptor-bound SPE-7 IgE was determined as 190 nM.
